Where “and” joins values, the source holds several entries; their conditions need not be identical. Equal entries are not always repeated.
Target: the molecule itself

B1: FLAG-tagged soluble Lassa virus glycoprotein 1 (sGP1-FLAG) (natural protein)
chain: TSLYKGVYELQTLELNMETLNMTMPLSCTKNNSHHYIMVGNETGLELTLTNTSIINHKFCNLSDAHKKNLYDHALMSIISTFHLSIPNFNQYEAMSCDFNGGKISVQYNLSHSYAGDAANHCGTVANGVLQTFMRMAWGGSYIALDSGRGNWDCIMTSYQYLIIQNTTWEDHCQFSRPSPIGYLGLLSQRTRDIYISRRLL
- stoichiometry N: 2 and 3
